According to article PMC10523585 (Molecular cell, 2023):

Assays:
Experiment in all cases: cryo-EM structure
[1] = biological target: Rpt1 (ATPase subunit of the human 26S proteasome) (human, UniProt P35998 1-433)
[2] = biological target: T1, α7 (CP subunit of the human 26S proteasome) (human, UniProt P25788 2-255)
T1 sequence: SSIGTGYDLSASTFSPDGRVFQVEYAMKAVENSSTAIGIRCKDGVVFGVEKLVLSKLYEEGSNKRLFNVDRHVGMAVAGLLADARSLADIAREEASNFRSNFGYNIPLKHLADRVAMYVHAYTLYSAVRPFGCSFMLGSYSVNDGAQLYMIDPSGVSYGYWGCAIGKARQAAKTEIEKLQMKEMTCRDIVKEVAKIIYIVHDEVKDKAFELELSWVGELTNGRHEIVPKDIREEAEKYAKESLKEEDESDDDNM

[3] = biological target: Rpn1 (non-ATPase, ubiquitin-binding subunit of the human 26S proteasome) (human, UniProt Q13200 1-908)
Sequence of Rpn1 (non-ATPase, ubiquitin-binding subunit of the human 26S proteasome) (Q13200 whole entry): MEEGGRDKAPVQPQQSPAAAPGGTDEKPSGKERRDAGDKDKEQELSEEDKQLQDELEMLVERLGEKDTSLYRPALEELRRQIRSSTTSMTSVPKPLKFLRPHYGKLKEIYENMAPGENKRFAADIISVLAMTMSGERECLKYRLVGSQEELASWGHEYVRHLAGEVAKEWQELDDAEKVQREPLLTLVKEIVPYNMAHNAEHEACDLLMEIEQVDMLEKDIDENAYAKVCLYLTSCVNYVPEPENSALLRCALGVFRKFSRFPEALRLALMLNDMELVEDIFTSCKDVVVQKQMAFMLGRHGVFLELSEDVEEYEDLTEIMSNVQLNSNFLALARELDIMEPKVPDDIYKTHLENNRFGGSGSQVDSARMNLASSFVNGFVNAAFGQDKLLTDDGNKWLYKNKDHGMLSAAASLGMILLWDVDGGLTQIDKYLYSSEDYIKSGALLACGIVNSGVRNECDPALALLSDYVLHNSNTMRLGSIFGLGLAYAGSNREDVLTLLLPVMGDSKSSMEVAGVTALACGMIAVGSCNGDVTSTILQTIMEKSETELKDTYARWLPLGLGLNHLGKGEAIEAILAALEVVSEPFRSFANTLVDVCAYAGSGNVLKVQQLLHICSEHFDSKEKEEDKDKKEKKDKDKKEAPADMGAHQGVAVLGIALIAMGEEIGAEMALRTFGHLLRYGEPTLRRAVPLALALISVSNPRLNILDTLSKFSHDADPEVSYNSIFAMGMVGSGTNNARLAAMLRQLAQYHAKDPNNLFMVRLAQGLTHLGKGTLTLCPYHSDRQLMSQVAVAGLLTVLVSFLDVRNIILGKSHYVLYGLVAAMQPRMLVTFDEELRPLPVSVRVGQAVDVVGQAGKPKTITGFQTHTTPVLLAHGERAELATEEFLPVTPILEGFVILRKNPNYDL

[4] = biological target: Rpt5 (ATPase subunit of the human 26S proteasome) (human, UniProt P17980 1-439)
Sequence of Rpt5 (ATPase subunit of the human 26S proteasome) (P17980 whole entry): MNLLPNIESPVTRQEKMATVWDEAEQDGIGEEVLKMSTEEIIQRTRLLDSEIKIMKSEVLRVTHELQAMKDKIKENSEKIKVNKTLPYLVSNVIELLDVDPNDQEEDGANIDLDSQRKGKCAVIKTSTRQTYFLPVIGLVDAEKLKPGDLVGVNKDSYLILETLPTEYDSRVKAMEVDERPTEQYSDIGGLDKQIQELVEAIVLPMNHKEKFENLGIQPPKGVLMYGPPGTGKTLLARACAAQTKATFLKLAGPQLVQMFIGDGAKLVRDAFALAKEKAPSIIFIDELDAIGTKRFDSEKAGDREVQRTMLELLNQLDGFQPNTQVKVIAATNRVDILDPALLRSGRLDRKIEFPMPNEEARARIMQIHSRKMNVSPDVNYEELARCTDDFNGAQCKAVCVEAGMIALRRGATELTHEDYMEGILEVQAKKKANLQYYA

Measured: binding result

Sequence of Rpt1 (ATPase subunit of the human 26S proteasome) (P35998 whole entry): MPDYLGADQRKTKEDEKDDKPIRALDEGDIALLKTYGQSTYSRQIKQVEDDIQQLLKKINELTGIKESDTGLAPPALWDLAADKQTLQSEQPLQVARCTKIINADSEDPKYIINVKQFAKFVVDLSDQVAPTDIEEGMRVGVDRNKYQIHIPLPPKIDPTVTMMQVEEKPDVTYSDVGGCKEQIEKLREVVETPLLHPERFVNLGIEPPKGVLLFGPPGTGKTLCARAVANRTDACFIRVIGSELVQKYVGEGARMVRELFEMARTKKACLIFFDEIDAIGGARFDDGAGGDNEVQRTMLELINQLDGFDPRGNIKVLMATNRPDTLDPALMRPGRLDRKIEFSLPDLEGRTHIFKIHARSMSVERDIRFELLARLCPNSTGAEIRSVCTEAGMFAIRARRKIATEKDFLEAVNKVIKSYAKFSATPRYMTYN

B1: ZFAND5 (recombinant mouse ZFAND5, wild type) (natural protein, UniProt O88878 1-213, looked up)
chain: MAQETNQTPGPMLCSTGCGFYGNPRTNGMCSVCYKEHLQRQQNSGRMSPMGTASGSNSPTSDSASVQRADAGLNNCEGAAGSTSEKSRNVPVAALPVTQQMTEMSISREDKITTPKTEVSEPVVTQPSPSVSQPSSSQSEEKAPELPKPKKNRCFMCRKKVGLTGFDCRCGNLFCGLHRYSDKHNCPYDYKAEAAAKIRKENPVVVAEKIQRI
binds: all assays above
